Publication PMC7367873, “Dissecting the sequence determinants for dephosphorylation by the catalytic subunits of phosphatases PP1 and PP2A” (Nature Communications, 2020)
One block for each molecule: values may come before it.

What was measured:
[1] = system: GFP-14-3-3β and its binding proteins; assay: GFP-14-3-3β co-IP with LC-MS/MS label-free quantification, untreated versus PP1c-treated; set-up: species or system human; conditions: for Difference (log2), PP1 vs untreated: pairwise comparison PP1 vs untreated, student's t-test, 3 replicates each, LC-MS/MS label-free quantification
GFP-14-3-3β = GFP-14-3-3β co-IP with LC-MS/MS, untreated GFP-14-3-3β versus GFP control (14-3-3 interactome); type: binding, human; conditions: pairwise comparison untreated GFP-14-3-3β vs GFP, student's t-test; 3 replicates each; LC-MS/MS label-free quantification

- Difference (log2), PP1 vs untreated [1]: -4.537 log2
B1: KIF23 (protein, UniProt Q02241 1-960, looked up)
Kinesin-like protein KIF23: MKSARAKTPRKPTVKKGSQTNLKDPVGVYCRVRPLGFPDQECCIEVINNTTVQLHTPEGYRLNRNGDYKETQYSFKQVFGTHTTQKELFDVVANPLVNDLIHGKNGLLFTYGVTGSGKTHTMTGSPGEGGLLPRCLDMIFNSIGSFQAKRYVFKSNDRNSMDIQCEVDALLERQKREAMPNPKTSSSKRQVDPEFADMITVQEFCKAEEVDEDSVYGVFVSYIEIYNNYIYDLLEEVPFDPIKPKPPQSKLLREDKNHNMYVAGCTEVEVKSTEEAFEVFWRGQKKRRIANTHLNRESSRSHSVFNIKLVQAPLDADGDNVLQEKEQITISQLSLVDLAGSERTNRTRAEGNRLREAGNINQSLMTLRTCMDVLRENQMYGTNKMVPYRDSKLTHLFKNYFDGEGKVRMIVCVNPKAEDYEENLQVMRFAEVTQEVEVARPVDKAICGLTPGRRYRNQPRGPVGNEPLVTDVVLQSFPPLPSCEILDINDEQTLPRLIEALEKRHNLRQMMIDEFNKQSNAFKALLQEFDNAVLSKENHMQGKLNEKEKMISGQKLEIERLEKKNKTLEYKIEILEKTTTIYEEDKRNLQQELETQNQKLQRQFSDKRRLEARLQGMVTETTMKWEKECERRVAAKQLEMQNKLWVKDEKLKQLKAIVTEPKTEKPERPSRERDREKVTQRSVSPSPVPLSSNYIAQISNGQQLMSQPQLHRRSNSCSSISVASCISEWEQKIPTYNTPLKVTSIARRRQQEPGQSKTCIVSDRRRGMYWTEGREVVPTFRNEIEIEEDHCGRLLFQPDQNAPPIRLRHRRSRSAGDRWVDHKPASNMQTETVMQPHVPHAITVSVANEKALAKCEKYMLTHQELASDGEIETKLIKGDIYKTRGGGQSVQFTDIETLKQESPNGSRKRRSSTVAPAQPDGAESEWTDVETRCSVAVEMRAGSQLGPGYQHHAQPKRKKP
- Difference (log2), untreated vs GFP (GFP-14-3-3β): 6.386 log2

- Difference (log2), PP1 vs untreated [1]: -4.694 log2
B2: TP53BP2 (protein, UniProt Q13625 1-1128, looked up)
Apoptosis-stimulating of p53 …: MMPMFLTVYLSNNEQHFTEVPVTPETICRDVVDLCKEPGESDCHLAEVWCGSERPVADNERMFDVLQRFGSQRNEVRFFLRHERPPGRDIVSGPRSQDPSLKRNGVKVPGEYRRKENGVNSPRMDLTLAELQEMASRQQQQIEAQQQLLATKEQRLKFLKQQDQRQQQQVAEQEKLKRLKEIAENQEAKLKKVRALKGHVEQKRLSNGKLVEEIEQMNNLFQQKQRELVLAVSKVEELTRQLEMLKNGRIDSHHDNQSAVAELDRLYKELQLRNKLNQEQNAKLQQQRECLNKRNSEVAVMDKRVNELRDRLWKKKAALQQKENLPVSSDGNLPQQAASAPSRVAAVGPYIQSSTMPRMPSRPELLVKPALPDGSLVIQASEGPMKIQTLPNMRSGAASQTKGSKIHPVGPDWSPSNADLFPSQGSASVPQSTGNALDQVDDGEVPLREKEKKVRPFSMFDAVDQSNAPPSFGTLRKNQSSEDILRDAQVANKNVAKVPPPVPTKPKQINLPYFGQTNQPPSDIKPDGSSQQLSTVVPSMGTKPKPAGQQPRVLLSPSIPSVGQDQTLSPGSKQESPPAAAVRPFTPQPSKDTLLPPFRKPQTVAASSIYSMYTQQQAPGKNFQQAVQSALTKTHTRGPHFSSVYGKPVIAAAQNQQQHPENIYSNSQGKPGSPEPETEPVSSVQENHENERIPRPLSPTKLLPFLSNPYRNQSDADLEALRKKLSNAPRPLKKRSSITEPEGPNGPNIQKLLYQRTTIAAMETISVPSYPSKSASVTASSESPVEIQNPYLHVEPEKEVVSLVPESLSPEDVGNASTENSDMPAPSPGLDYEPEGVPDNSPNLQNNPEEPNPEAPHVLDVYLEEYPPYPPPPYPSGEPEGPGEDSVSMRPPEITGQVSLPPGKRTNLRKTGSERIAHGMRVKFNPLALLLDSSLEGEFDLVQRIIYEVDDPSLPNDEGITALHNAVCAGHTEIVKFLVQFGVNVNAADSDGWTPLHCAASCNNVQVCKFLVESGAAVFAMTYSDMQTAADKCEEMEEGYTQCSQFLYGVQEKMGIMNKGVIYALWDYEPQNDDELPMKEGDCMTIIHREDEDEIEWWWARLNDKEGYVPRNLLGLYPRIKPRQRSLA
- Difference (log2), untreated vs GFP (GFP-14-3-3β): 3.807 log2

- Difference (log2), PP1 vs untreated [1]: -4.593 log2
B3: MTMR3 (protein, UniProt Q13615 1-1198, looked up)
Phosphatidylinositol-3,5-bisph …: MDEETRHSLECIQANQIFPRKQLIREDENLQVPFLELHGESTEFVGRAEDAIIALSNYRLHIKFKESLVNVPLQLIESVECRDIFQLHLTCKDCKVIRCQFSTFEQCQEWLKRLNNAIRPPAKIEDLFSFAYHAWCMEVYASEKEQHGDLCRPGEHVTSRFKNEVERMGFDMNNAWRISNINEKYKLCGSYPQELIVPAWITDKELESVSSFRSWKRIPAVIYRHQSNGAVIARCGQPEVSWWGWRNADDEHLVQSVAKACASDSRSSGSKLSTRNTSRDFPNGGDLSDVEFDSSLSNASGAESLAIQPQKLLILDARSYAAAVANRAKGGGCECPEYYPNCEVVFMGMANIHSIRRSFQSLRLLCTQMPDPGNWLSALESTKWLHHLSVLLKSALLVVHAVDQDQRPVLVHCSDGWDRTPQIVALAKLLLDPYYRTIEGFQVLVEMEWLDFGHKFADRCGHGENSDDLNERCPVFLQWLDCVHQLQRQFPCSFEFNEAFLVKLVQHTYSCLFGTFLCNNAKERGEKHTQERTCSVWSLLRAGNKAFKNLLYSSQSEAVLYPVCHVRNLMLWSAVYLPCPSPTTPVDDSCAPYPAPGTSPDDPPLSRLPKTRSYDNLTTACDNTVPLASRRCSDPSLNEKWQEHRRSLELSSLAGPGEDPLSADSLGKPTRVPGGAELSVAAGVAEGQMENILQEATKEESGVEEPAHRAGIEIQEGKEDPLLEKESRRKTPEASAIGLHQDPELGDAALRSHLDMSWPLFSQGISEQQSGLSVLLSSLQVPPRGEDSLEVPVEQFRIEEIAEGREEAVLPIPVDAKVGYGTSQSCSLLPSQVPFETRGPNVDSSTDMLVEDKVKSVSGPQGHHRSCLVNSGKDRLPQTMEPSPSETSLVERPQVGSVVHRTSLGSTLSLTRSPCALPLAECKEGLVCNGAPETENRASEQPPGLSTLQMYPTPNGHCANGEAGRSKDSLSRQLSAMSCSSAHLHSRNLHHKWLHSHSGRPSATSSPDQPSRSHLDDDGMSVYTDTIQQRLRQIESGHQQEVETLKKQVQELKSRLESQYLTSSLHFNGDFGDEVTSIPDSESNLDQNCLSRCSTEIFSEASWEQVDKQDTEMTRWLPDHLAAHCYACDSAFWLASRKHHCRNCGNVFCSSCCNQKVPVPSQQLFEPSRVCKSCYSSLHPTSSSIDLELDKPIAATSN
- Difference (log2), untreated vs GFP (GFP-14-3-3β): 4.385 log2

- Difference (log2), PP1 vs untreated [1]: -5.046 log2
B4: CDC25B (protein, UniProt P30305 1-580, looked up)
M-phase inducer phosphatase 2: MEVPQPEPAPGSALSPAGVCGGAQRPGHLPGLLLGSHGLLGSPVRAAASSPVTTLTQTMHDLAGLGSETPKSQVGTLLFRSRSRLTHLSLSRRASESSLSSESSESSDAGLCMDSPSPMDPHMAEQTFEQAIQAASRIIRNEQFAIRRFQSMPVRLLGHSPVLRNITNSQAPDGRRKSEAGSGAASSSGEDKENDGFVFKMPWKPTHPSSTHALAEWASRREAFAQRPSSAPDLMCLSPDRKMEVEELSPLALGRFSLTPAEGDTEEDDGFVDILESDLKDDDAVPPGMESLISAPLVKTLEKEEEKDLVMYSKCQRLFRSPSMPCSVIRPILKRLERPQDRDTPVQNKRRRSVTPPEEQQEAEEPKARVLRSKSLCHDEIENLLDSDHRELIGDYSKAFLLQTVDGKHQDLKYISPETMVALLTGKFSNIVDKFVIVDCRYPYEYEGGHIKTAVNLPLERDAESFLLKSPIAPCSLDKRVILIFHCEFSSERGPRMCRFIRERDRAVNDYPSLYYPEMYILKGGYKEFFPQHPNFCEPQDYRPMNHEAFKDELKTFRLKTRSWAGERSRRELCSRLQDQ
- Difference (log2), untreated vs GFP (GFP-14-3-3β): 4.101 log2

- Difference (log2), PP1 vs untreated [1]: -4.778 log2
B5: PPP1R3D (protein, UniProt O95685 1-299, looked up)
Protein phosphatase 1 …: MSRGPSSAVLPSALGSRKLGPRSLSCLSDLDGGVALEPRACRPPGSPGRAPPPTPAPSGCDPRLRPIILRRARSLPSSPERRQKAAGAPGAACRPGCSQKLRVRFADALGLELAQVKVFNAGDDPSVPLHVLSRLAINSDLCCSSQDLEFTLHCLVPDFPPPVEAADFGERLQRQLVCLERVTCSDLGISGTVRVCNVAFEKQVAVRYTFSGWRSTHEAVARWRGPAGPEGTEDVFTFGFPVPPFLLELGSRVHFAVRYQVAGAEYWDNNDHRDYSLTCRNHALHMPRGECEESWIHFI
- Difference (log2), untreated vs GFP (GFP-14-3-3β): 3.78 log2

- Difference ([1]; GFP-14-3-3β co-IP, PP1vsUntrted, Perseus raw output, LFQ intensity difference): -4.783
- Difference (log2), PP1 vs untreated [1]: -4.783 log2
B6: FAM83G (protein, UniProt A6ND36 2-823, looked up)
Protein FAM83G: AFSQVQCLDDNHVNWRSSESKPEFFYSEEQRLALEALVARGRDAFYEVLKRENIRDFLSELELKRILETIEVYDPGSEDPRGTGPSQGPEDNGVGDGEEASGADGVPIEAEPLPSLEYWPQKSDRSIPQLDLGWPDTIAYRGVTRASVYMQPPIDGQAHIKEVVRKMISQAQKVIAVVMDMFTDVDIFKDLLDAGFKRKVAVYIIVDESNVKYFLHMCERACMHLGHLKNLRVRSSGGTEFFTRSATKFKGALAQKFMFVDGDRAVCGSYSFTWSAARTDRNVISVLSGQVVEMFDRQFQELYLMSHSVSLKGIPMEKEPEPEPIVLPSVVPLVPAGTVAKKLVNPKYALVKAKSVDEIAKISSEKQEAKKPLGLKGPALAEHPGELPELLPPIHPGLLHLERANMFEYLPTWVEPDPEPGSDILGYINIIDPNIWNPQPSQMNRIKIRDTSQASAQHQLWKQSQDSRPRPEPCPPPEPSAPQDGVPAENGLPQGDPEPLPPVPKPRTVPVADVLARDSSDIGWVLELPKEEAPQNGTDHRLPRMAGPGHAPLQRQLSVTQDDPESLGVGLPNGLDGVEEEDDDDYVTLSDQDSHSGSSGRGPGPRRPSVASSVSEEYFEVREHSVPLRRRHSEQVANGPTPPPRRQLSAPHITRGTFVGPQGGSPWAQSRGREEADALKRMQAQRSTDKEAQGQQFHHHRVPASGTRDKDGFPGPPRYRSAADSVQSSTRNAGPAMAGPHHWQAKGGQVPRLLPDPGSPRLAQNARPMTDGRATEEHPSPFGIPYSKLSQSKHLKARTGGSQWASSDSKRRAQAPRDRKDP
- Difference (log2), untreated vs GFP (GFP-14-3-3β): 4.695 log2
